Measured values reported in US12679878B2, “CRF2 receptor agonists and their use in therapy” (SANOFI, priority 2020, dated 2026).
Starred links: 1 amine or outer side, 2 acyl side, 3 side chain; linkers in the order of their positions; H or OH if unused. Non-standard residues stand in square brackets, D forms with d. Groups on a side chain read outwards from the residue. No end group written: not given here. *: point of attachment. C20 diacid = O=C(O)CCCCCCCCCCCCCCCCCCC(=O)*; C18 diacid = O=C(O)CCCCCCCCCCCCCCCCC(=O)*; γGlu = O=C(O)[C@H](CCC(=O)[*:2])N[*:1]; Palmitoyl = CCCCCCCCCCCCCCCC(=O)*; AEEA = NCCOCCOCC(=O)O; Aib = CC(C)(N)C(=O)O

B1: SEQ ID NO: 177 (peptide)
peptide: IVLSLD[dV]PIKLK([AEEA-AEEA-γGlu-γGlu-C20 diacid])QILLKQERQKKQRQQAEKNKQILAQV-NH2
modifications: N-terminus assumed
SMILES: CC[C@H](C)[C@H](N)C(=O)N[C@H](C(=O)N[C@@H](CC(C)C)C(=O)N[C@@H](CO)C(=O)N[C@@H](CC(C)C)C(=O)N[C@@H](CC(=O)O)C(=O)N[C@@H](C(=O)N1CCC[C@H]1C(=O)N[C@H](C(=O)N[C@@H](CCCCN)C(=O)N[C@@H](CC(C)C)C(=O)N[C@@H](CCCCNC(=O)COCCOCCNC(=O)COCCOCCNC(=O)CC[C@H](NC(=O)CC[C@H](NC(=O)CCCCCCCCCCCCCCCCCCC(=O)O)C(=O)O)C(=O)O)C(=O)N[C@@H](CCC(N)=O)C(=O)N[C@H](C(=O)N[C@@H](CC(C)C)C(=O)N[C@@H](CC(C)C)C(=O)N[C@@H](CCCCN)C(=O)N[C@@H](CCC(N)=O)C(=O)N[C@@H](CCC(=O)O)C(=O)N[C@@H](CCCNC(=N)N)C(=O)N[C@@H](CCC(N)=O)C(=O)N[C@@H](CCCCN)C(=O)N[C@@H](CCCCN)C(=O)N[C@@H](CCC(N)=O)C(=O)N[C@@H](CCCNC(=N)N)C(=O)N[C@@H](CCC(N)=O)C(=O)N[C@@H](CCC(N)=O)C(=O)N[C@@H](C)C(=O)N[C@@H](CCC(=O)O)C(=O)N[C@@H](CCCCN)C(=O)N[C@@H](CC(N)=O)C(=O)N[C@@H](CCCCN)C(=O)N[C@@H](CCC(N)=O)C(=O)N[C@H](C(=O)N[C@@H](CC(C)C)C(=O)N[C@@H](C)C(=O)N[C@@H](CCC(N)=O)C(=O)N[C@H](C(N)=O)C(C)C)[C@@H](C)CC)[C@@H](C)CC)[C@@H](C)CC)C(C)C)C(C)C
B2: SEQ ID NO: 21 (peptide)
peptide: IVLSLD[dV]PTKLK([γGlu-Palmitoyl])QKLLKQERQRKE[Aib]EQAEKNKRILERV-NH2
modifications: N-terminus assumed
SMILES: CCCCCCCCCCCCCCCC(=O)N[C@@H](CCC(=O)NCCCC[C@H](NC(=O)[C@H](CC(C)C)NC(=O)[C@H](CCCCN)NC(=O)[C@@H](NC(=O)[C@@H]1CCCN1C(=O)[C@H](NC(=O)[C@H](CC(=O)O)NC(=O)[C@H](CC(C)C)NC(=O)[C@H](CO)NC(=O)[C@H](CC(C)C)NC(=O)[C@@H](NC(=O)[C@@H](N)[C@@H](C)CC)C(C)C)C(C)C)[C@@H](C)O)C(=O)N[C@@H](CCC(N)=O)C(=O)N[C@@H](CCCCN)C(=O)N[C@@H](CC(C)C)C(=O)N[C@@H](CC(C)C)C(=O)N[C@@H](CCCCN)C(=O)N[C@@H](CCC(N)=O)C(=O)N[C@@H](CCC(=O)O)C(=O)N[C@@H](CCCNC(=N)N)C(=O)N[C@@H](CCC(N)=O)C(=O)N[C@@H](CCCNC(=N)N)C(=O)N[C@@H](CCCCN)C(=O)N[C@@H](CCC(=O)O)C(=O)NC(C)(C)C(=O)N[C@@H](CCC(=O)O)C(=O)N[C@@H](CCC(N)=O)C(=O)N[C@@H](C)C(=O)N[C@@H](CCC(=O)O)C(=O)N[C@@H](CCCCN)C(=O)N[C@@H](CC(N)=O)C(=O)N[C@@H](CCCCN)C(=O)N[C@@H](CCCNC(=N)N)C(=O)N[C@H](C(=O)N[C@@H](CC(C)C)C(=O)N[C@@H](CCC(=O)O)C(=O)N[C@@H](CCCNC(=N)N)C(=O)N[C@H](C(N)=O)C(C)C)[C@@H](C)CC)C(=O)O
B3: SEQ ID NO: 175 (peptide)
peptide: IVLSLD[dV]PIKLK([AEEA-AEEA-γGlu-C20 diacid])QILLKQARQK[Aib]QRAQAEKNKRILERV-NH2
modifications: N-terminus assumed
SMILES: CC[C@H](C)[C@H](N)C(=O)N[C@H](C(=O)N[C@@H](CC(C)C)C(=O)N[C@@H](CO)C(=O)N[C@@H](CC(C)C)C(=O)N[C@@H](CC(=O)O)C(=O)N[C@@H](C(=O)N1CCC[C@H]1C(=O)N[C@H](C(=O)N[C@@H](CCCCN)C(=O)N[C@@H](CC(C)C)C(=O)N[C@@H](CCCCNC(=O)COCCOCCNC(=O)COCCOCCNC(=O)CC[C@H](NC(=O)CCCCCCCCCCCCCCCCCCC(=O)O)C(=O)O)C(=O)N[C@@H](CCC(N)=O)C(=O)N[C@H](C(=O)N[C@@H](CC(C)C)C(=O)N[C@@H](CC(C)C)C(=O)N[C@@H](CCCCN)C(=O)N[C@@H](CCC(N)=O)C(=O)N[C@@H](C)C(=O)N[C@@H](CCCNC(=N)N)C(=O)N[C@@H](CCC(N)=O)C(=O)N[C@@H](CCCCN)C(=O)NC(C)(C)C(=O)N[C@@H](CCC(N)=O)C(=O)N[C@@H](CCCNC(=N)N)C(=O)N[C@@H](C)C(=O)N[C@@H](CCC(N)=O)C(=O)N[C@@H](C)C(=O)N[C@@H](CCC(=O)O)C(=O)N[C@@H](CCCCN)C(=O)N[C@@H](CC(N)=O)C(=O)N[C@@H](CCCCN)C(=O)N[C@@H](CCCNC(=N)N)C(=O)N[C@H](C(=O)N[C@@H](CC(C)C)C(=O)N[C@@H](CCC(=O)O)C(=O)N[C@@H](CCCNC(=N)N)C(=O)N[C@H](C(N)=O)C(C)C)[C@@H](C)CC)[C@@H](C)CC)[C@@H](C)CC)C(C)C)C(C)C
B4: SEQ ID NO: 179 (peptide)
peptide: IVLSLD[dV]PIKLK([γGlu-C18 diacid])QILLKQERQK[Aib]QREQAEKNKQILAQV-NH2
modifications: N-terminus assumed
SMILES: CC[C@H](C)[C@H](N)C(=O)N[C@H](C(=O)N[C@@H](CC(C)C)C(=O)N[C@@H](CO)C(=O)N[C@@H](CC(C)C)C(=O)N[C@@H](CC(=O)O)C(=O)N[C@@H](C(=O)N1CCC[C@H]1C(=O)N[C@H](C(=O)N[C@@H](CCCCN)C(=O)N[C@@H](CC(C)C)C(=O)N[C@@H](CCCCNC(=O)CC[C@H](NC(=O)CCCCCCCCCCCCCCCCC(=O)O)C(=O)O)C(=O)N[C@@H](CCC(N)=O)C(=O)N[C@H](C(=O)N[C@@H](CC(C)C)C(=O)N[C@@H](CC(C)C)C(=O)N[C@@H](CCCCN)C(=O)N[C@@H](CCC(N)=O)C(=O)N[C@@H](CCC(=O)O)C(=O)N[C@@H](CCCNC(=N)N)C(=O)N[C@@H](CCC(N)=O)C(=O)N[C@@H](CCCCN)C(=O)NC(C)(C)C(=O)N[C@@H](CCC(N)=O)C(=O)N[C@@H](CCCNC(=N)N)C(=O)N[C@@H](CCC(=O)O)C(=O)N[C@@H](CCC(N)=O)C(=O)N[C@@H](C)C(=O)N[C@@H](CCC(=O)O)C(=O)N[C@@H](CCCCN)C(=O)N[C@@H](CC(N)=O)C(=O)N[C@@H](CCCCN)C(=O)N[C@@H](CCC(N)=O)C(=O)N[C@H](C(=O)N[C@@H](CC(C)C)C(=O)N[C@@H](C)C(=O)N[C@@H](CCC(N)=O)C(=O)N[C@H](C(N)=O)C(C)C)[C@@H](C)CC)[C@@H](C)CC)[C@@H](C)CC)C(C)C)C(C)C
B5: SEQ ID NO: 178 (peptide)
peptide: IVLSLD[dV]PIKLK([AEEA-AEEA-γGlu-C20 diacid])QILLKQERQKKQRQQAEKNKQILAQV-NH2
modifications: N-terminus assumed
SMILES: CC[C@H](C)[C@H](N)C(=O)N[C@H](C(=O)N[C@@H](CC(C)C)C(=O)N[C@@H](CO)C(=O)N[C@@H](CC(C)C)C(=O)N[C@@H](CC(=O)O)C(=O)N[C@@H](C(=O)N1CCC[C@H]1C(=O)N[C@H](C(=O)N[C@@H](CCCCN)C(=O)N[C@@H](CC(C)C)C(=O)N[C@@H](CCCCNC(=O)COCCOCCNC(=O)COCCOCCNC(=O)CC[C@H](NC(=O)CCCCCCCCCCCCCCCCCCC(=O)O)C(=O)O)C(=O)N[C@@H](CCC(N)=O)C(=O)N[C@H](C(=O)N[C@@H](CC(C)C)C(=O)N[C@@H](CC(C)C)C(=O)N[C@@H](CCCCN)C(=O)N[C@@H](CCC(N)=O)C(=O)N[C@@H](CCC(=O)O)C(=O)N[C@@H](CCCNC(=N)N)C(=O)N[C@@H](CCC(N)=O)C(=O)N[C@@H](CCCCN)C(=O)N[C@@H](CCCCN)C(=O)N[C@@H](CCC(N)=O)C(=O)N[C@@H](CCCNC(=N)N)C(=O)N[C@@H](CCC(N)=O)C(=O)N[C@@H](CCC(N)=O)C(=O)N[C@@H](C)C(=O)N[C@@H](CCC(=O)O)C(=O)N[C@@H](CCCCN)C(=O)N[C@@H](CC(N)=O)C(=O)N[C@@H](CCCCN)C(=O)N[C@@H](CCC(N)=O)C(=O)N[C@H](C(=O)N[C@@H](CC(C)C)C(=O)N[C@@H](C)C(=O)N[C@@H](CCC(N)=O)C(=O)N[C@H](C(N)=O)C(C)C)[C@@H](C)CC)[C@@H](C)CC)[C@@H](C)CC)C(C)C)C(C)C
B6: SEQ ID NO: 176 (peptide)
peptide: IVLSLD[dV]PIKLK([AEEA-AEEA-γGlu-γGlu-C18 diacid])QILLKQERQKKQRQQAEKNKQILAQV-NH2
modifications: N-terminus assumed
SMILES: CC[C@H](C)[C@H](N)C(=O)N[C@H](C(=O)N[C@@H](CC(C)C)C(=O)N[C@@H](CO)C(=O)N[C@@H](CC(C)C)C(=O)N[C@@H](CC(=O)O)C(=O)N[C@@H](C(=O)N1CCC[C@H]1C(=O)N[C@H](C(=O)N[C@@H](CCCCN)C(=O)N[C@@H](CC(C)C)C(=O)N[C@@H](CCCCNC(=O)COCCOCCNC(=O)COCCOCCNC(=O)CC[C@H](NC(=O)CC[C@H](NC(=O)CCCCCCCCCCCCCCCCC(=O)O)C(=O)O)C(=O)O)C(=O)N[C@@H](CCC(N)=O)C(=O)N[C@H](C(=O)N[C@@H](CC(C)C)C(=O)N[C@@H](CC(C)C)C(=O)N[C@@H](CCCCN)C(=O)N[C@@H](CCC(N)=O)C(=O)N[C@@H](CCC(=O)O)C(=O)N[C@@H](CCCNC(=N)N)C(=O)N[C@@H](CCC(N)=O)C(=O)N[C@@H](CCCCN)C(=O)N[C@@H](CCCCN)C(=O)N[C@@H](CCC(N)=O)C(=O)N[C@@H](CCCNC(=N)N)C(=O)N[C@@H](CCC(N)=O)C(=O)N[C@@H](CCC(N)=O)C(=O)N[C@@H](C)C(=O)N[C@@H](CCC(=O)O)C(=O)N[C@@H](CCCCN)C(=O)N[C@@H](CC(N)=O)C(=O)N[C@@H](CCCCN)C(=O)N[C@@H](CCC(N)=O)C(=O)N[C@H](C(=O)N[C@@H](CC(C)C)C(=O)N[C@@H](C)C(=O)N[C@@H](CCC(N)=O)C(=O)N[C@H](C(N)=O)C(C)C)[C@@H](C)CC)[C@@H](C)CC)[C@@H](C)CC)C(C)C)C(C)C

molecular target: human corticotropin-releasing factor 2α (CRF2 α receptor) (human), Q13324; experiment: cell-based or functional assay
Sequence (Q13324 20-411): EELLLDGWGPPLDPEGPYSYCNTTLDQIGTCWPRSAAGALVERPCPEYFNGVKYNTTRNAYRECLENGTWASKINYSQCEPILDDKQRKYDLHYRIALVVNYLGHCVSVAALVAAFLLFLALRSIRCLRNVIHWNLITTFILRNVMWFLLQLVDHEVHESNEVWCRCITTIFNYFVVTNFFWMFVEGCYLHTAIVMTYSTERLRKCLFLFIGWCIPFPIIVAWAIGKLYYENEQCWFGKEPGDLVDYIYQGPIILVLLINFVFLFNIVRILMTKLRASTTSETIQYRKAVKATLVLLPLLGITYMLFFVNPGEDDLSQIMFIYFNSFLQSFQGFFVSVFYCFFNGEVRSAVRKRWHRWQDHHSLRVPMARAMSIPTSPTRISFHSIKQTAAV

EC50 [nM], 0% HSA	EC50 [nM], 0.1% HSA	Binder
0.07 nM	5.19 nM	B1
0.02 nM		B2
0.06 nM	3.64 nM	B3
0.03 nM	1.88 nM	B4
0.04 nM	3.77 nM	B5
0.11 nM	3.05 nM	B6
